Two proteins from paper PMC5703498, “Plant-type phytoene desaturase: Functional evaluation of structural implications” (PLoS ONE, 2017) can be followed below.

What all share (format): biochemical, Oryza sativa
Substrate in data set [1]: CC(C)=CCC/C(C)=C/CC/C(C)=C/CC/C(C)=C/C=C\C=C(/C)CC/C=C(\C)CC/C=C(\C)CCC=C(C)C
The experiment in a line: Michaelis-Menten kinetics of purified enzyme in liposome assay (KM), HPLC. The note with it: FAD hydrophobic substrate cavity, C11-C12 near the flavin.

Substrate in data set [2]: CC(C)=CCC/C(C)=C/CC\C(C)=C/C=C/C(C)=C/C=C\C=C(/C)CC/C=C(\C)CC/C=C(\C)CCC=C(C)C
The data set is described as above. The note with it: FAD competes with phytoene at the active site.

Substrate in data set [3]: CCCCCCCCCCC1=CC(=O)C(C)=C(C)C1=O
Nature of the data set: Michaelis-Menten kinetics of purified enzyme in liposome assay (KM). The following applies: FAD electron acceptor; same substrate cavity as the carotene, successively occupied, near the FAD.

Substrate in data set [4]: CC(C)=CCC/C(C)=C/CC/C(C)=C/CC/C(C)=C/C=C\C=C(/C)CC/C=C(\C)CC/C=C(\C)CCC=C(C)C
Nature of the data set: Michaelis-Menten kinetics of purified mutant in liposome assay (KM). The note with it: FAD hydrophobic substrate cavity.

Substrate in data set [5]: CCCCCCCCCCC1=CC(=O)C(C)=C(C)C1=O
The data set is described as above. The note with it: FAD electron acceptor; same substrate cavity as the carotene.

B1: Phytoene desaturase (OsPDS-His6) (Oryza sativa Indica Group) (protein)
chain: AGQLSSFFRNSEQPTKPLQVVIAGAGLAGLSTAKYLADAGHKPILLEARDVLGGKIAAWKDEDGDWYETGLHIFFGAYPNIQNLFGELGINDRLQWKEHSMIFAMPNKPGEFSRFDFPETLPAPLNGIWAILRNNEMLTWPEKVKFALGLLPAMVGGQAYVEAQDGFTVSEWMKKQGVPDRVNDEVFIAMSKALNFINPDELSMQCILIALNRFLQEKHGSKMAFLDGNPPERLCMPIVDHVRSLGGEVRLNSRIQKIELNPDGTVKHFALTDGTQITGDAYVFATPVDILKLLVPQEWKEISYFKKLEKLVGVPVINVHIWFDRKLKNTYDHLLFSRSSLLSVYADMSVTCKEYYDPNRSMLELVFAPAEEWVGRSDTEIIEATMQELAKLFPDEIAADQSKAKILKYHVVKTPRSVYKTIPDCEPCRPLQRSPIEGFYLAGDYTKQKYLASMEGAVLSGKLCAQSVVEDYKMLSRRSLKSLQSEVPVAS
For orientation: Km means the substrate concentration at which the rate is half of its maximum. As to B1, the Km is 53.9 ± 18.1 mM in data set [1], 66.8 ± 20.7 mM in data set [2] and 1.3 ± 0.2 mM in data set [3].

B2: Phytoene desaturase (OsPDS-His6) (Oryza sativa Indica Group; R300S) (protein)
chain: AGQLSSFFRNSEQPTKPLQVVIAGAGLAGLSTAKYLADAGHKPILLEARDVLGGKIAAWKDEDGDWYETGLHIFFGAYPNIQNLFGELGINDRLQWKEHSMIFAMPNKPGEFSRFDFPETLPAPLNGIWAILRNNEMLTWPEKVKFALGLLPAMVGGQAYVEAQDGFTVSEWMKKQGVPDRVNDEVFIAMSKALNFINPDELSMQCILIALNSFLQEKHGSKMAFLDGNPPERLCMPIVDHVRSLGGEVRLNSRIQKIELNPDGTVKHFALTDGTQITGDAYVFATPVDILKLLVPQEWKEISYFKKLEKLVGVPVINVHIWFDRKLKNTYDHLLFSRSSLLSVYADMSVTCKEYYDPNRSMLELVFAPAEEWVGRSDTEIIEATMQELAKLFPDEIAADQSKAKILKYHVVKTPRSVYKTIPDCEPCRPLQRSPIEGFYLAGDYTKQKYLASMEGAVLSGKLCAQSVVEDYKMLSRRSLKSLQSEVPVAS
For B2, the values for the Km in data set [4] and in data set [5] were 4.5 ± 2.6 mM and 0.4 ± 0.1 mM, respectively.
